The data set deals with HpyCH4V restriction endonuclease (Helicobacter pylori CH4). The data set is described as follows: cleavage_in_vitro. Conditions: fragments of 576, 498, 441, 335, 315, 312, 296, 244, 205 bp and 12 smaller than 200 bp.

In patent US6133009 one finds number of cleavage fragments data, which are given here for one substance.

For the substance pBR322 DNA, the number of cleavage fragments was found to be 21 fragments.
